Results as given in US20140242077A1 (AbbVie / Abbott, published 2014).
Residue numbers refer to the chain shown, from its start.

T1: LAG3 (human, UniProt P18627 23-525)
T1 construct: whole, on cells; The intended T-cell surface marker of the LAG3 variable domains
T1 sequence (looked up): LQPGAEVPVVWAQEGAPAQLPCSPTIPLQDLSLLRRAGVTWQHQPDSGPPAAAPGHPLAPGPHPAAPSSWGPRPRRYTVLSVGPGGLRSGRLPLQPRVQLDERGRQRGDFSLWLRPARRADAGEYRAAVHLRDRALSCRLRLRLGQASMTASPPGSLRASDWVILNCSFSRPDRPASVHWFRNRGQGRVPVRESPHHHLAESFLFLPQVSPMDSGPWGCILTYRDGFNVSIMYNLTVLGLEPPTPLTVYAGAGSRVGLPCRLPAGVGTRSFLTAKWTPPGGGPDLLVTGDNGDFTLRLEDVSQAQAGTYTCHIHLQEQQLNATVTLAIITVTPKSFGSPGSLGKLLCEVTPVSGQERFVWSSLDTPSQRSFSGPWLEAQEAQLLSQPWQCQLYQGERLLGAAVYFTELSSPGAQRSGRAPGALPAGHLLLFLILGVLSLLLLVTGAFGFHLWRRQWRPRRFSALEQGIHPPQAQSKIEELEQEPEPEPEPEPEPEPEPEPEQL

B1: DVD2567 (bispecific antibody)
VH: QVQLQQWGAGLLKPSETLSLTCAVYGGSFSGYYWSWIRQSPEKGLEWIGEINHGGYVTYNPSLESRVTISVDTSKNQFSLKLSSVTAADTAVYYCARDYGPGNYDWYFDLWGRGTLVTVSSASTKGPQVQLQQWGAGLLKPSETLSLTCAVYGGSFSDYYWNWIRQPPGKGLEWIGEINHNGNTNSNPSLKSRVTLSLDTSKNQFSLKLRSVTAADTAVYYCAFGYSDYEYNWFDPWGQGTLVTVSS
VL: EIVLTQSPATLSLSPGERATLSCRASQSVSSYLAWYQQKPGQAPRLLIYDASNRATGIPARFSGSGSGTDFTLTISSLEPEDFAVYYCQQRSNWPPALTFGGGTKVEIKRTVAAPEIVLTQSPATLSLSPGERATLSCRASQSISSYLAWYQQKPGQAPRLLIYDASNRATGIPARFSGSGSGTDFTLTISSLEPEDFAVYYCQQRSNWPLTFGQGTNLEIKR
notes: Four-chain DVD-Ig; also called DVD2567H/DVD2567L; 41BB/LAG3 DVD-Ig
B2: DVD2568 (bispecific antibody)
VH: QVQLQQWGAGLLKPSETLSLTCAVYGGSFSGYYWSWIRQSPEKGLEWIGEINHGGYVTYNPSLESRVTISVDTSKNQFSLKLSSVTAADTAVYYCARDYGPGNYDWYFDLWGRGTLVTVSSASTKGPSVFPLAPQVQLQQWGAGLLKPSETLSLTCAVYGGSFSDYYWNWIRQPPGKGLEWIGEINHNGNTNSNPSLKSRVTLSLDTSKNQFSLKLRSVTAADTAVYYCAFGYSDYEYNWFDPWGQGTLVTVSS
VL: B1 VL
notes: Four-chain DVD-Ig; also called DVD2568H/DVD2568L; 41BB/LAG3 DVD-Ig
B3: DVD2569 (bispecific antibody)
VH: QVQLQQWGAGLLKPSETLSLTCAVYGGSFSDYYWNWIRQPPGKGLEWIGEINHNGNTNSNPSLKSRVTLSLDTSKNQFSLKLRSVTAADTAVYYCAFGYSDYEYNWFDPWGQGTLVTVSSASTKGPQVQLQQWGAGLLKPSETLSLTCAVYGGSFSGYYWSWIRQSPEKGLEWIGEINHGGYVTYNPSLESRVTISVDTSKNQFSLKLSSVTAADTAVYYCARDYGPGNYDWYFDLWGRGTLVTVSS
VL: EIVLTQSPATLSLSPGERATLSCRASQSISSYLAWYQQKPGQAPRLLIYDASNRATGIPARFSGSGSGTDFTLTISSLEPEDFAVYYCQQRSNWPLTFGQGTNLEIKRTVAAPEIVLTQSPATLSLSPGERATLSCRASQSVSSYLAWYQQKPGQAPRLLIYDASNRATGIPARFSGSGSGTDFTLTISSLEPEDFAVYYCQQRSNWPPALTFGGGTKVEIKR
notes: Four-chain DVD-Ig; also called DVD2569H/DVD2569L; LAG3/41BB DVD-Ig
B4: DVD2570 (bispecific antibody)
VH: QVQLQQWGAGLLKPSETLSLTCAVYGGSFSDYYWNWIRQPPGKGLEWIGEINHNGNTNSNPSLKSRVTLSLDTSKNQFSLKLRSVTAADTAVYYCAFGYSDYEYNWFDPWGQGTLVTVSSASTKGPSVFPLAPQVQLQQWGAGLLKPSETLSLTCAVYGGSFSGYYWSWIRQSPEKGLEWIGEINHGGYVTYNPSLESRVTISVDTSKNQFSLKLSSVTAADTAVYYCARDYGPGNYDWYFDLWGRGTLVTVSS
VL: B3 VL
notes: Four-chain DVD-Ig; also called DVD2570H/DVD2570L
B5: DVD2555 (bispecific antibody)
VH: QVQLVESGGGVVQPGRSLRLDCKASGITFSNSGMHWVRQAPGKGLEWVAVIWYDGSKRYYADSVKGRFTISRDNSKNTLFLQMNSLRAEDTAVYYCATNDDYWGQGTLVTVSSASTKGPQVQLQQWGAGLLKPSETLSLTCAVYGGSFSDYYWNWIRQPPGKGLEWIGEINHNGNTNSNPSLKSRVTLSLDTSKNQFSLKLRSVTAADTAVYYCAFGYSDYEYNWFDPWGQGTLVTVSS
VL: EIVLTQSPATLSLSPGERATLSCRASQSVSSYLAWYQQKPGQAPRLLIYDASNRATGIPARFSGSGSGTDFTLTISSLEPEDFAVYYCQQSSNWPRTFGQGTKVEIKRTVAAPEIVLTQSPATLSLSPGERATLSCRASQSISSYLAWYQQKPGQAPRLLIYDASNRATGIPARFSGSGSGTDFTLTISSLEPEDFAVYYCQQRSNWPLTFGQGTNLEIKR
notes: Four-chain DVD-Ig; also called DVD2555H/DVD2555L; PD1/LAG3 DVD-Ig
B6: DVD2557 (bispecific antibody)
VH: QVQLQQWGAGLLKPSETLSLTCAVYGGSFSDYYWNWIRQPPGKGLEWIGEINHNGNTNSNPSLKSRVTLSLDTSKNQFSLKLRSVTAADTAVYYCAFGYSDYEYNWFDPWGQGTLVTVSSASTKGPQVQLVESGGGVVQPGRSLRLDCKASGITFSNSGMHWVRQAPGKGLEWVAVIWYDGSKRYYADSVKGRFTISRDNSKNTLFLQMNSLRAEDTAVYYCATNDDYWGQGTLVTVSS
VL: B5 VL with V29I, S91R, R96L, K103N, V104L, I142V, R204S, L209R, N216K, L217V
notes: Four-chain DVD-Ig; also called DVD2557H/DVD2557L; LAG3/PD1 DVD-Ig
B7: DVD2556 (bispecific antibody)
VH: QVQLVESGGGVVQPGRSLRLDCKASGITFSNSGMHWVRQAPGKGLEWVAVIWYDGSKRYYADSVKGRFTISRDNSKNTLFLQMNSLRAEDTAVYYCATNDDYWGQGTLVTVSSASTKGPSVFPLAPQVQLQQWGAGLLKPSETLSLTCAVYGGSFSDYYWNWIRQPPGKGLEWIGEINHNGNTNSNPSLKSRVTLSLDTSKNQFSLKLRSVTAADTAVYYCAFGYSDYEYNWFDPWGQGTLVTVSS
VL: B5 VL
notes: Four-chain DVD-Ig; also called DVD2556H/DVD2556L; PD1/LAG3 DVD-Ig

Each binder was assayed against T2, 4-1BB (human, UniProt Q07011 24-255) (assay: flow cytometry on activated human T-cells).
T2 construct: whole, on cells; The intended T-cell surface marker of the 41BB variable domains; also called CD137; TNFRSF9
Procedure: (§1) PBMCs were isolated from heparinized leukopaks by use of Ficoll density gradient centrifugation. PBMCs were stimulated overnight with CD2/CD3/CD28 beads from a T-Cell Activation/Expansion Kit (Miltenyi Biotech, Germany) according to the manufacturer's protocol. Activated T-cells were incubated with primary antibody for 1 hour at 4° C., washed in PBS, and then incubated for 30 minutes with fluorescently-labeled secondary anti-Fc specific antibody (Jackson ImmunoResearch, West Grove, Pa.). Activated T-cell samples were analyzed on a FACSCantoII cytometer (BD) and data were analyzed with FlowJo software. Geometric mean fluorescence intensity was compared to DVD-Ig protein concentration by graphing in the GraphPad Prism software package (see FIG. 14).

T2 sequence (Q07011 24-255): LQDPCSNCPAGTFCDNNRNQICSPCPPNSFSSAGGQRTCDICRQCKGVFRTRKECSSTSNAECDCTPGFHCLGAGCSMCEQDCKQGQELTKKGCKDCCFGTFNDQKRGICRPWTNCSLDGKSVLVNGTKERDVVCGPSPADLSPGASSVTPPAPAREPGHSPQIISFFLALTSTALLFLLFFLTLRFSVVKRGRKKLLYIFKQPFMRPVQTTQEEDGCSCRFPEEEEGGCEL

Binding result, binds:
B1
B2
B3
B4

Each binder was assayed against T3, PD1 (human, UniProt Q15116 25-288) (assay: flow cytometry on activated human T-cells).
T3 construct: whole, on cells; The intended T-cell surface marker of the PD1 variable domains; also called programmed cell death protein 1
Procedure: as §1

T3 sequence (Q15116 25-288): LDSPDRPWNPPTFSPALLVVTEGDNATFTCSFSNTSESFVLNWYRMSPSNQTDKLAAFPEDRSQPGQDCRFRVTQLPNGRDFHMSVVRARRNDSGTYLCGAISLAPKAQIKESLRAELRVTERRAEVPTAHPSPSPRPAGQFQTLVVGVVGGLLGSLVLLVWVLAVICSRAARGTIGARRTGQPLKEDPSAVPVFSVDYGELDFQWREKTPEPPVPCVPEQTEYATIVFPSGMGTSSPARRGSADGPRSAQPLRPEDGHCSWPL

Binding result, binds:
B5
B6
B7

What follows are binders tested against T1, LAG3 (assay: flow cytometry on activated human T-cells).
Procedure: as §1

Binding result, binds:
B1
B2
B3
B4
